Laboratory results: PMC5404920

Target: Mg-ATP actin (15% Alexa 488-labeled), assembled into actin filaments (F-actin) (not stated (chicken or rabbit skeletal muscle)) (UniProt P68135)
Assay: TIRF microscopy; two-color TIRFM of 1.5 μM Mg-ATP actin (15% Alexa 488) assembling with Cy5-labeled Cdc8 at 1 μM and above; 10 mM imidazole pH 7.0, 50 mM KCl, 1 mM MgCl2, 1 mM EGTA, 0.5% methylcellulose, room temperature

| Substance | kon per unit filament length of the first observed Cdc8 binding (random-binding model fitted to the TIRFM data) [s⁻¹ nm⁻¹] | percent of F-actin coated at 2 μM Cdc8 and higher [%] | percent of actin filament sites coated at 1.25 μM Cdc8 [%] | percent of actin filaments associated with tropomyosin [%] | percent of total actin filament coverage at 1 μM Cdc8 [%] | spreading rate of Cdc8 toward the barbed end (Cdc8 molecules sec^-1 μM^-1) | spreading rate of Cdc8 toward the pointed end (Cdc8 molecules sec^-1 μM^-1) |
| --- | --- | --- | --- | --- | --- | --- | --- |
| tropomyosin AlaSer-Cdc8 I76C, Cy5-labeled (natural protein) | 4e-06 | 98 | 40 | 100 | 2 | 3.2 | 2.4 |
| tropomyosin AlaSer-Cdc8 D142C, Cy5-labeled (natural protein) | – | – | – | 100 | – | – | – |
